Our source for the protein stability index values is the supplement of paper PMC9732359.

The series in a line: protein stability index of a GFP-peptide fusion (yeast GPS) (PSI 1-4); higher = more stable; sorted into four equal gates, so the index is relative within each strain. Put shortly:
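Mid-log yeast cultures in leucine-free medium, carrying a pooled plasmid library, were sorted into four equal gates by their GFP/Cherry fluorescence ratio. Each plasmid expressed Cherry along with GFP fused upstream of a tiled 17-residue yeast protein peptide. Plasmids recovered from each gate were PCR-amplified and Illumina-sequenced, with reads assigned to strains by barcodes. The protein stability index was obtained by summing each gate's read frequency weighted by its gate number.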

± gives the uncertainty stated by the source.

As for IGTKRFDSEKSGDREVQ [RPT5], the protein stability index (doa10∆) came to 3.15 ± 0.19, the protein stability index (pdr5∆) came to 3.51 ± 0.2, the protein stability index (san1∆) worked out at 2.8 ± 0.26 and the protein stability index (ubr1∆) stood at 3.41 ± 0.12.

For YKFLDQNSDASTLEPTL [YIL149C/MLP2], the protein stability index reads like this: (doa10∆) 2.24 ± 0.11; (pdr5∆) 1.65 ± 0.092; (san1∆) 2.27 ± 0.09; (ubr1∆) 2.67 ± 0.18.

Consider VSNKFEKIFHYGHVFLG [PUP3], for which the protein stability index (doa10∆) worked out at 2.94 ± 0.28.

In the case of SPTPIQRITIPNVCNMK [PRP28], the protein stability index runs as follows: (doa10∆) 1.99 ± 0.074; (pdr5∆) 2.16 ± 0.063; (san1∆) 2.04 ± 0.068; (ubr1∆) 2.09 ± 0.057.

In the case of TKGDTSKATGAPSANQG [RTT102], the protein stability index runs as follows: (doa10∆) 3.18 ± 0.065; (pdr5∆) 3.35 ± 0.074; (san1∆) 3.29 ± 0.045; (ubr1∆) 3.24 ± 0.059.

Turning to INQINEAHPTKVKNFGV [RPL20A], the protein stability index by setting is: (doa10∆) 3.04 ± 0.074; (pdr5∆) 2.93 ± 0.049; (san1∆) 3.117 ± 0.031; (ubr1∆) 2.85 ± 0.038.

Regarding QPQQQLGDMENNLEKYP [RTT102], the protein stability index (doa10∆) was 3.54 ± 0.092, the protein stability index (pdr5∆) stood at 3.15 ± 0.12, the protein stability index (san1∆) was determined as 3.62 ± 0.077 and the protein stability index (ubr1∆) is 3.33 ± 0.1.

Regarding ELSDSWRAHDSSIVAID [YGL100W/SEH1], the protein stability index by setting is: (doa10∆) 2.9 ± 0.084; (pdr5∆) 2.72 ± 0.11; (san1∆) 3.24 ± 0.054; (ubr1∆) 2.8 ± 0.08.

As for GKILLKGDNITLITSAD [SME1], the protein stability index reads like this: (doa10∆) 2.62 ± 0.092; (pdr5∆) 3.23 ± 0.1; (san1∆) 2.77 ± 0.092; (ubr1∆) 3.2 ± 0.053.

Consider IESIRSCKDSQLKWAQN [YIL149C/MLP2], for which the protein stability index was determined as 2.78 ± 0.064 (doa10∆), 3.01 ± 0.069 (pdr5∆), 2.75 ± 0.053 (san1∆) and 2.95 ± 0.053 (ubr1∆).

For the sequence FLTVSKLWAEIIVKILY [GRR1], the protein stability index reads like this: (doa10∆) 1.55 ± 0.046; (pdr5∆) 1.97 ± 0.058; (san1∆) 1.53 ± 0.087; (ubr1∆) 1.37 ± 0.048.

With IVQAKEPNLAAQQDSTN [ECM29], the protein stability index runs as follows: (doa10∆) 2.51 ± 0.11; (pdr5∆) 2.88 ± 0.054; (san1∆) 2.69 ± 0.1; (ubr1∆) 2.75 ± 0.063.

For the sequence MAFRKSNVYLSLVNSYI [COB], the protein stability index runs as follows: (doa10∆) 2 ± 0.049; (pdr5∆) 2.08 ± 0.078; (san1∆) 1.96 ± 0.079; (ubr1∆) 2.36 ± 0.064.

In the case of EWVKLHRLLQRALFRQL [RMP1], the protein stability index by setting is: (doa10∆) 1.47 ± 0.25; (pdr5∆) 1.58 ± 0.21; (san1∆) 2.86 ± 0.14; (ubr1∆) 2.16 ± 0.14.

With DENGTNSAIANEQEEKS [RPC37], the protein stability index runs as follows: (doa10∆) 2.65 ± 0.083; (pdr5∆) 2.83 ± 0.1; (san1∆) 2.74 ± 0.047; (ubr1∆) 3.07 ± 0.051.

Consider EIDHQEYSPEILQIREE [RRP6], for which the protein stability index was found to be 3.19 ± 0.067 (doa10∆), 3.06 ± 0.069 (pdr5∆), 3.21 ± 0.094 (san1∆) and 3.18 ± 0.048 (ubr1∆).

For YYAKKRAFTKKVSSASA [RPL16B], the protein stability index amounted to 1.82 ± 0.075 (doa10∆), 1.71 ± 0.048 (pdr5∆), 1.95 ± 0.068 (san1∆) and 1.41 ± 0.055 (ubr1∆).

PAFKPTEKKFTKEQYAA [RPL5]: the protein stability index was determined as 2.93 ± 0.089 (doa10∆), 3.12 ± 0.083 (pdr5∆), 2.79 ± 0.067 (san1∆) and 3.04 ± 0.1 (ubr1∆).

As to IGQLIGEVMKELSEEKY [RPT4], the protein stability index runs as follows: (doa10∆) 3.27 ± 0.063; (pdr5∆) 3.42 ± 0.076; (san1∆) 3.44 ± 0.067; (ubr1∆) 3.27 ± 0.042.

Sequence GSKLEDMSKILVDQGFN [RET1] gave a protein stability index (doa10∆) of 3.14 ± 0.066, a protein stability index (pdr5∆) of 3.2 ± 0.072, a protein stability index (san1∆) of 3.31 ± 0.034 and a protein stability index (ubr1∆) of 3.29 ± 0.049.

As for RTKTPGPGGQAALRALA [RPS14B], the protein stability index is 2.39 ± 0.077 (doa10∆), 2.55 ± 0.11 (pdr5∆), 2.23 ± 0.1 (san1∆) and 2.46 ± 0.08 (ubr1∆).

For the sequence QLVYKRGFGKINKQRVP [RPL7A], the protein stability index reads like this: (doa10∆) 2.46 ± 0.071; (pdr5∆) 2.4 ± 0.079; (san1∆) 3.24 ± 0.11; (ubr1∆) 2.85 ± 0.059.

The sequence GSSAGMNGRSLTYAQQQ [SNF6] showed a protein stability index (doa10∆) of 2.99 ± 0.083, a protein stability index (pdr5∆) of 3.15 ± 0.081, a protein stability index (san1∆) of 3.03 ± 0.058 and a protein stability index (ubr1∆) of 3.24 ± 0.044.

Turning to PWCVKPEYLAMYGLTME [ITC1], the protein stability index runs as follows: (doa10∆) 2.27 ± 0.065; (pdr5∆) 3.03 ± 0.071; (san1∆) 2.79 ± 0.081; (ubr1∆) 2.07 ± 0.073.

For the sequence NQGVNELKYQRSLRATA [RPL15A], the protein stability index amounted to 1.33 ± 0.073 (doa10∆), 1.42 ± 0.086 (pdr5∆), 1.61 ± 0.18 (san1∆) and 1.11 ± 0.05 (ubr1∆).

Consider PRSPGRSPTRRLELLQL [SMC4], for which the protein stability index by setting is: (doa10∆) 1.41 ± 0.27; (pdr5∆) 2.12 ± 0.15; (san1∆) 1.99 ± 0.25; (ubr1∆) 1.7 ± 0.13.
